In the supplement of paper PMC7877785:
± gives the uncertainty stated by the source.

Experiment: self-splicing fitness, log relative to wild type (ln ratio); higher = more splicing; Tetrahymena group I intron in knt gene, E. coli kanamycin selection, DiMSum; sequences stand for … in CUCUCU…GGAGGGAAAAGUUAUCAGGCAUGCACCUGGUAGCUAGUCUUUAAACCAAUAGAUUGCAUCGGUUUAAAAGGCAAGACCGUCAAAUUGCGGGAAAGGGGUCAACAGCCGUUCAGUACCAAGUCUCAGGGGAAACUUUGAGAUGGCCUUGCAAAGGGUAUGGUAAUAAGCUGACGGACAUGGUCCUAACCACGCAGCCAAGUCCUAAGUCAACAGAUCUUCUGUUGAUAUGGAUGCAGUUCACAGACUAAAUGUCGGUCGGGGAAGAUGUAUUCUUCUCAUAAGAUAUAGUCGGACCUCUCCUUAAUGGGAGCUAGCGGAUGAAGUGAUGCAACACUGGAGCCGCUGGGAACUAAUUUGUAUGCGAAAGUAUAUUGAUUAGUUUUGGAGUACUCGUGGUCG
Summary of the method: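 DiMSum derived fitness as the error-weighted combination of fold changes across replicates, kanamycin versus no kanamycin, normalised to wild type. E. coli BL21(DE3) held the library, which randomised all eight P1ex-region intron nucleotides within the knt kanamycin-resistance gene on pET-22b(+). Six replicate transformations grew overnight at 37°C or 30°C on LB agar with or without 25 μg/mL kanamycin, also containing 100 μg/mL carbenicillin, 50 μM IPTG and 0.2% rhamnose, and pooled colonies were amplicon-sequenced on an Illumina HiSeq 2500.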

## AGAAAGCAAUAUUACGCGCG
30 °C
  self-splicing fitness (ln): -0.0244 ± 0.1
37 °C
  self-splicing fitness (ln): -0.00454 ± 0.14

## CGAUAGCAAUAUUACGAGCG
30 °C
  self-splicing fitness (ln): -0.984 ± 0.12
37 °C
  self-splicing fitness (ln): -0.453 ± 0.13

## GCUCAGCAAUAUUACGGAGC
37 °C
  self-splicing fitness (ln): -1.82 ± 0.44

## UACGAGCAAUAUUACGCCAC
37 °C
  self-splicing fitness (ln): -2.29 ± 0.42

## CUGGAGCAAUAUUACGCUGU
37 °C
  self-splicing fitness (ln): -3.04 ± 0.48

## ACCGAGCAAUAUUACGUUCU
30 °C
  self-splicing fitness (ln): -2.38 ± 0.074
37 °C
  self-splicing fitness (ln): -1.01 ± 0.074

## CGCCAGCAAUAUUACGAUCC
30 °C
  self-splicing fitness (ln): -3.12 ± 0.37

## GCCUAGCAAUAUUACGGGAC
30 °C
  self-splicing fitness (ln): -2.4 ± 0.13
37 °C
  self-splicing fitness (ln): -0.0283 ± 0.1

## AAGCAGCAAUAUUACGACGA
30 °C
  self-splicing fitness (ln): -0.888 ± 0.089
37 °C
  self-splicing fitness (ln): -0.307 ± 0.094

## CACUAGCAAUAUUACGUAGC
30 °C
  self-splicing fitness (ln): -3.47 ± 0.19
37 °C
  self-splicing fitness (ln): -2.94 ± 0.23

## GUCGAGCAAUAUUACGAAUU
30 °C
  self-splicing fitness (ln): -3.05 ± 0.32
37 °C
  self-splicing fitness (ln): -0.878 ± 0.19

## GUGAAGCAAUAUUACGACGG
30 °C
  self-splicing fitness (ln): -0.531 ± 0.12
37 °C
  self-splicing fitness (ln): -0.418 ± 0.23

## AUGUAGCAAUAUUACGAUCG
30 °C
  self-splicing fitness (ln): -2.2 ± 0.15
37 °C
  self-splicing fitness (ln): -1.12 ± 0.2

## UCCGAGCAAUAUUACGGUCC
30 °C
  self-splicing fitness (ln): -3.08 ± 0.24
37 °C
  self-splicing fitness (ln): -3.35 ± 0.33

## GGGGAGCAAUAUUACGCCAU
37 °C
  self-splicing fitness (ln): -1.58 ± 0.32

## AUGAAGCAAUAUUACGAUUC
30 °C
  self-splicing fitness (ln): -2.23 ± 0.1
37 °C
  self-splicing fitness (ln): -1.33 ± 0.14

## CAGGAGCAAUAUUACGGACU
30 °C
  self-splicing fitness (ln): -1.86 ± 0.14
37 °C
  self-splicing fitness (ln): -1.75 ± 0.3

## UAGCAGCAAUAUUACGGAAG
30 °C
  self-splicing fitness (ln): -3.04 ± 0.16
37 °C
  self-splicing fitness (ln): -1.14 ± 0.15

## GCUCAGCAAUAUUACGGAGG
30 °C
  self-splicing fitness (ln): -1.44 ± 0.08
37 °C
  self-splicing fitness (ln): -0.504 ± 0.091

## UGAUAGCAAUAUUACGGGAA
30 °C
  self-splicing fitness (ln): -2.65 ± 0.2
37 °C
  self-splicing fitness (ln): -2.44 ± 0.21

## CUUUAGCAAUAUUACGAACA
30 °C
  self-splicing fitness (ln): -3.07 ± 0.41

## UGCCAGCAAUAUUACGCAGG
30 °C
  self-splicing fitness (ln): -4.43 ± 0.33
37 °C
  self-splicing fitness (ln): -3.14 ± 0.28

## UCACAGCAAUAUUACGUAUC
30 °C
  self-splicing fitness (ln): -4.32 ± 0.46
37 °C
  self-splicing fitness (ln): -2.75 ± 0.19

## GUCCAGCAAUAUUACGCGGC
30 °C
  self-splicing fitness (ln): -2.27 ± 0.26
37 °C
  self-splicing fitness (ln): -2.6 ± 0.48

## CCGCAGCAAUAUUACGGCCA
30 °C
  self-splicing fitness (ln): -4.11 ± 0.31
37 °C
  self-splicing fitness (ln): -2.51 ± 0.26

## AUAUAGCAAUAUUACGGUGG
30 °C
  self-splicing fitness (ln): -3.4 ± 0.22
37 °C
  self-splicing fitness (ln): -2.44 ± 0.25

## ACCCAGCAAUAUUACGCUCU
30 °C
  self-splicing fitness (ln): -0.186 ± 0.058
37 °C
  self-splicing fitness (ln): 0.107 ± 0.067

## GUGCAGCAAUAUUACGUACC
37 °C
  self-splicing fitness (ln): -2.41 ± 0.32

## CGACAGCAAUAUUACGACCG
30 °C
  self-splicing fitness (ln): -0.981 ± 0.1
37 °C
  self-splicing fitness (ln): 0.0442 ± 0.18

## CCUAAGCAAUAUUACGUACG
30 °C
  self-splicing fitness (ln): -1.94 ± 0.13
37 °C
  self-splicing fitness (ln): -0.851 ± 0.13

## GGUGAGCAAUAUUACGCGGU
37 °C
  self-splicing fitness (ln): -1.5 ± 0.42

## AAACAGCAAUAUUACGUAAC
30 °C
  self-splicing fitness (ln): -4.39 ± 0.24
37 °C
  self-splicing fitness (ln): -1.97 ± 0.14

## GCCAAGCAAUAUUACGAAAC
30 °C
  self-splicing fitness (ln): -2.15 ± 0.14
37 °C
  self-splicing fitness (ln): -0.23 ± 0.14

## GAUAAGCAAUAUUACGAACG
30 °C
  self-splicing fitness (ln): -1.22 ± 0.14
37 °C
  self-splicing fitness (ln): -0.754 ± 0.17

## GGUAAGCAAUAUUACGAAUC
30 °C
  self-splicing fitness (ln): -0.515 ± 0.13
37 °C
  self-splicing fitness (ln): -0.339 ± 0.16

## CUUGAGCAAUAUUACGUCCA
30 °C
  self-splicing fitness (ln): -3.91 ± 0.39
37 °C
  self-splicing fitness (ln): -2.55 ± 0.41

## UGUUAGCAAUAUUACGUCAC
30 °C
  self-splicing fitness (ln): -3.58 ± 0.33
37 °C
  self-splicing fitness (ln): -2.64 ± 0.38

## CGGAAGCAAUAUUACGGUUC
30 °C
  self-splicing fitness (ln): -3.49 ± 0.3
37 °C
  self-splicing fitness (ln): -2.85 ± 0.25

## UGAUAGCAAUAUUACGGUGA
30 °C
  self-splicing fitness (ln): -1.46 ± 0.16
37 °C
  self-splicing fitness (ln): -0.637 ± 0.19

## UCGCAGCAAUAUUACGUAUU
30 °C
  self-splicing fitness (ln): -3.64 ± 0.15
37 °C
  self-splicing fitness (ln): -1.85 ± 0.12

## GAAAAGCAAUAUUACGGUAU
30 °C
  self-splicing fitness (ln): -2.38 ± 0.11
37 °C
  self-splicing fitness (ln): -1.69 ± 0.14

## AGCAAGCAAUAUUACGAUUC
30 °C
  self-splicing fitness (ln): -2.18 ± 0.13
37 °C
  self-splicing fitness (ln): -1.04 ± 0.15

## CCGCAGCAAUAUUACGCUAU
30 °C
  self-splicing fitness (ln): -3.78 ± 0.3
37 °C
  self-splicing fitness (ln): -3.04 ± 0.25

## GUCUAGCAAUAUUACGAAAU
30 °C
  self-splicing fitness (ln): 0.0935 ± 0.11
37 °C
  self-splicing fitness (ln): 0.4 ± 0.1

## UGUAAGCAAUAUUACGCACC
30 °C
  self-splicing fitness (ln): -0.744 ± 0.36
37 °C
  self-splicing fitness (ln): 0.286 ± 0.37

## UCUGAGCAAUAUUACGCUGA
30 °C
  self-splicing fitness (ln): -1.89 ± 0.17
37 °C
  self-splicing fitness (ln): -0.151 ± 0.15

## CCCCAGCAAUAUUACGGUCG
30 °C
  self-splicing fitness (ln): -2.24 ± 0.068
37 °C
  self-splicing fitness (ln): -1.2 ± 0.078

## GCGCAGCAAUAUUACGUCCC
30 °C
  self-splicing fitness (ln): -1.14 ± 0.3
37 °C
  self-splicing fitness (ln): 0.234 ± 0.2

## UAGAAGCAAUAUUACGGGAC
30 °C
  self-splicing fitness (ln): -3.1 ± 0.36
37 °C
  self-splicing fitness (ln): -3.21 ± 0.47

## AGUCAGCAAUAUUACGCACG
30 °C
  self-splicing fitness (ln): -1.02 ± 0.12
37 °C
  self-splicing fitness (ln): -0.646 ± 0.15
